Source: patent publication US20140072986, “AMYLOID PROTEIN OLIGOMER-BINDING APTAMER” (NATIONAL UNIVERSITY CORPORATION TOKYO UNIVERSITY OF …, published 2014)

Assays:
[1] = target: T1, amyloid beta 1-40 oligomer (UniProt P05067 P05067:672-711); assay: aptamer blotting, 500 nM; settings: tags: Peptide Institute peptide; oligomerised from HFIP/water; chain copies: oligomer (stated); label: 5'-FITC; G4
Experimental: (§1) α-synuclein monomer, oligomer, and fibril (1 μg) was immobilized on a nitrocellulose membrane and dried. Then, the membrane was incubated with 4% skim milk prepared using TBS-T (25 mM Tris-HCl, pH 7.4, 0.15 M NaCl, 0.005 M KCl, 0.05% Tween-20) at room temperature for 1 hour for blocking. After that, the membrane was washed with a sufficient amount of TBS-T (2 min×twice and 10 min×one time). The obtained plural oligonucleotides modified with FITC at the 5′ end (f.c. 100 nM) were folded, and the DNA and the membrane were incubated at room temperature for 1 hour. Next, the membrane was washed with a sufficient amount of TBS-T (2 min×twice, 10 min×one time, and 5 min×twice). After that, an HRP-modified anti-FITC antibody diluted to 1000 times with TBS-T and the membrane were incubated at room temperature for 1 hour and the membrane was washed with a sufficient amount of TBS-T (2 min×twice, 10 min×one time, and 5 min×twice). ECL Plus Western blotting detection reagents (GE Healthcare Ltd.) were added to the membrane, and HRP chemiluminescence was detected by TYPHOON 8600 to observe the binding of the DNA to the protein.
Spot intensities of portions with the immobilized α-Syn oligomer were analyzed to create a calibration curve, whereby an oligomer concentration included in the Aβ₁₋₄₀ oligomer sample was roughly estimated. After that, the Aβ₁₋₄₀ oligomer was immobilized on a nitrocellulose membrane in such a manner that the A11 has the same level of spot intensity, and aptamer blotting was performed using 500 nM of each aptamer. As a control, the A11 was used to perform the same experiment.

C-reactive protein (CRP) = target: T2, C-reactive protein (CRP) (UniProt P02741 P02741:19-224); assay: aptamer blotting, 5 pmol protein; settings: tags: Polyscience Corp; chain copies: 5; label: 5'-FITC; G4
T2 sequence: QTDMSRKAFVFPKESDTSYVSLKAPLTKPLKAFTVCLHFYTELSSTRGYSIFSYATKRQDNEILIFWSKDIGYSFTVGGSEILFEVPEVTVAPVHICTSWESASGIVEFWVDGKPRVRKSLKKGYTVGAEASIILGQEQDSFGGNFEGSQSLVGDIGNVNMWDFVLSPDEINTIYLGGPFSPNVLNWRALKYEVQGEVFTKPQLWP
Experimental: as §1
(§2) On the same nitrocellulose membrane, 5 pmol of each of glucose dehydrogenase (PQQGDH) dependent on the coenzyme PQQ, a C-reactive protein (CRP) (Polyscience Corp.), luciferase, and an IgG antibody (Sigma Aldrich Company), and 0.5 μg of α-synuclein oligomer were immobilized. Using the membrane, specificity evaluation was performed by an aptamer blotting method.

[2] = target: PQQ-dependent glucose dehydrogenase (PQQGDH) (UniProt P13650 P13650:25-478); assay: aptamer blotting, 5 pmol protein; settings: label: 5'-FITC; G4
Chain of PQQ-dependent glucose dehydrogenase (PQQGDH) (P13650 25-478, one chain of several): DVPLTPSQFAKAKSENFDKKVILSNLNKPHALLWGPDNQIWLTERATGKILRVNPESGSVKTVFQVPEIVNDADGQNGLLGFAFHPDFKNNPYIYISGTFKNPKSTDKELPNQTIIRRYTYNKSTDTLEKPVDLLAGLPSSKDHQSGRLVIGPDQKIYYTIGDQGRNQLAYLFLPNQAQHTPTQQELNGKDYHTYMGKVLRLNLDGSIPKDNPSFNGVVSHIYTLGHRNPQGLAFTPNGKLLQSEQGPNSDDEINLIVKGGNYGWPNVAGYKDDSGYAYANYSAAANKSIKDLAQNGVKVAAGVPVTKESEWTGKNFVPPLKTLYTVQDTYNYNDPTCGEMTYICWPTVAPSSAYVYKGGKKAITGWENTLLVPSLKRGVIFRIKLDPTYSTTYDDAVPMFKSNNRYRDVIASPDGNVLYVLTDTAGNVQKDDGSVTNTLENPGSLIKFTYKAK
Experimental: as §1, §2

[3] = target: T1, amyloid beta 1-40 oligomer; assay: ELONA; oligomer immobilised on plate, room temp; settings: tags: Peptide Institute peptide, oligomerised from HFIP/water, chain copies: oligomer (stated), label: 5'-FITC
Experimental: (§3) 100 μL of 100 μM of an Aβ oligomer solution or PBS buffer was added to each well of MaxiSorp (registered trademark) plate (Nunc Co., Ltd) and incubated at 37° C. for 1.5 hours to immobilize the Aβ oligomer on the wells. Blocking of each well was performed with a 2% (w/v) BSA solution (TBS-T: 25 mM Tris-HCl, pH 7.4, 0.15M NaCl, 0.005M KCl, 0.05% Tween-20) to produce an Aβ oligomer-immobilized plate.
(§4) To each well of the Aβ oligomer-immobilized plate was added the each FITC-labeled aptamer prepared in a concentration of 1 nM, 2.5 nM, or 10 nM, and incubation at room temperature for 60 minutes was carried out. After washing the wells, an HRP-modified anti-FITC antibody (Cosmo BiO Co., Ltd) was added to the wells and incubation was performed at room temperature. After washing the wells, an HRP-luminescent substrate was added to detect the binding of each aptamer to the oligomer by chemiluminescence. FIG. 5 illustrates the results.
Further, using the 10T dimer and the original aptamer T-SO530 in a concentration of 1 nM, 2.5 nM, 10 nM, 20 nM, or 60 nM, an experiment for binding the aptamers to the Aβ oligomer was performed in the same manner as above. Based on the obtained binding signals, curve fitting was performed using GraphPad Prism (MDF Co., Ltd.) to calculate a binding dissociation constant (Kd).

[4] = target: T1, amyloid beta 1-40 oligomer; assay: ELONA; signal from 1 nM versus 10 nM for T-SO530; also strong spot in blotting FIG. 6; settings: tags: Peptide Institute peptide; oligomerised from HFIP/water; chain copies: oligomer (stated); label: 5'-FITC
Experimental: as §3, §4

alpha-synuclein oligomer [5] = target: T3, alpha-synuclein oligomer (UniProt P37840 P37840:1-140); assay: aptamer blotting; did not retain binding of T-SO504
alpha-synuclein oligomer [6] = target: T3, alpha-synuclein oligomer; assay: aptamer blotting; binding improved over T-SO504
alpha-synuclein oligomer [7] = target: T3, alpha-synuclein oligomer; assay: aptamer blotting

T1 sequence (P05067 672-711, one chain of several): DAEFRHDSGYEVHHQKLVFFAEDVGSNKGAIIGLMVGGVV

B1: T-SO517 (structured_DNA)
DNA: GGTGGCTGGAGGGGGCGCGAACG
B1: binds [1]; no binding (C-reactive protein (CRP)); no binding [2].

B2: T-SO530 (structured_DNA)
DNA: GGTGCGGCGGGACTAGTGGGTGTG
B2: binds [1].

B3: 10T dimer (structured_DNA)
DNA: TTTTTGGTGCGGCGGGACTAGTGGGTGTGTTTTTTTTTTGGTGCGGCGGGACTAGTGGGTGTG
With B3 the Kd [3] was 1.44 nM.

B4: T-SO552 (structured_DNA)
DNA: GCGTGTGGGGCTTGGGCAGCTGGG
B4: binds [1].

B5: 5T dimer (structured_DNA)
DNA: TTTTTGGTGCGGCGGGACTAGTGGGTGTGTTTTTGGTGCGGCGGGACTAGTGGGTGTG
B5: binds [4].

B6: tT-SO530 (structured_DNA)
DNA: TTTTTGGTGCGGCGGGACTAGTGGGTGTG
In the case of B6, the Kd ([3]; G4) is reported as 9.03 nM.

B7: 504M2 (ssDNA)
DNA: AAAAAGGGCAAAGGGAA
B7: no binding (alpha-synuclein oligomer [5]).

B8: T-SO606 (structured_DNA)
DNA: GGGTCGGCTGTCCGTGGGTGGGGA
B8: binds [1]; no binding (C-reactive protein (CRP)); no binding [2].

B9: T-SO504 (structured_DNA)
DNA: CAGGGGTGGGCAAAGGGCGGTGGTG
B9: binds [1].

B10: T-SO554 (structured_DNA)
DNA: CGAGGGGCGTCTGGGAGTGGTCGG
B10: binds [1].

B11: 504M1 (ssDNA)
DNA: AAAAAGGGTGGGCAAAGGGAA
B11: no binding (alpha-synuclein oligomer [5]).

B12: 504W (structured_DNA)
DNA: AAAAACAGGGGTGGGCAAAGGGCGGTGGTGTTTTTCAGGGGTGGGCAAAGGGCGGTGGTG
B12: binds (alpha-synuclein oligomer [6]).

B13: tT-SO504 (structured_DNA)
DNA: TTTTTCAGGGGTGGGCAAAGGGCGGTGGTG
B13: binds (alpha-synuclein oligomer [7]).

B14: T-SO508 (structured_DNA)
DNA: GCCTGTGGTGTTGGGGCGGGTGCG
B14: binds [1].

B15: T-SO602 (structured_DNA)
DNA: GCGGTAGGGTGTGAGCGGAAGGGG
B15: binds [1].
